Values of other authors as cited in article PMC4122144.

Tests used:
Conditions in all cases: Not stated. Presumably ground-state bR, since the values are compared with calculations on the 1QHJ ground-state structure.
Arg82 = Arg82 (UniProt position 95, PIYWARYADWL)
Asp85 = Asp85 (UniProt position 98, WARYADWLFTT)
Asp96 = Asp96 (UniProt position 109, PLLLLDLALLV)
Asp212 = Asp212 (UniProt position 225, LFMVLDVSAKV)
Asp115 = Asp115 (UniProt position 128, ALVGADGIMIG)

For “Bacteriorhodopsin (Halobacterium salinarum (not stated in the article; inferred))”, the pKa (Arg82) is listed as over 13.8, the pKa (Asp85) is listed as 2.6 and the pKa (Asp96) is listed as over 12.0. The pKa (Asp212) was under 2.5 and the pKa (Asp115) was over 9.5.
